In article PMC8602850, “SARS-CoV-2 Exacerbates COVID-19 Pathology Through Activation of the Complement and Kinin Systems” (Frontiers in Immunology, 2021):

B1: gC1qR, wild type, mature recombinant (receptor for the globular heads of C1q) (receptor, UniProt Q07021 74-282, looked up)
chain: LHTDGDKAFVDFLSDEIKEERKIQKHKTLPKMSGGWELELNGTEAKLVRKVAGEKITVTFNINNSIPPTFDGEEEPSQGQKVEEQEPELTSTPNFVVEVIKNDDGKKALVLDCHYPEDEVGQEDEAESDIFSIREVSFQSTGESEWKDTNYTLNTDSLDWALYDHLMDFLADRGVDNTFADELVELSTALEHQEYITFLEDLKSFVKSQ
modifications: biotin (biotinylated gC1qR in the ELISA; not said for the SPR surface)
notes: also called gC1qR-WT; biotinylated gC1qR

How the values were obtained:
[1] = target: T1, SARS-CoV-2 nucleocapsid (N) protein, recombinant (SARS-CoV-2, UniProt P0DTC9 1-419); assay: SPR; gC1qR-WT or gC1qR-ΔΔ immobilised; two-fold dilution series of analyte injected; reference-corrected sensorgrams fit to kinetic models; apparent KD; conditions: both partners purified
T1 construct: also called Nucleocapsid protein

[2] = target: B1; assay: as above; conditions: both partners purified

| Binder | Kd [1] | Kd [2] |
| --- | --- | --- |
| B1 | 6 µM | – |
| HKHGHGHGKHKNKGKKNGKH [synthetic peptide corresponding to the gC1qR-binding region from HK] | – | 2000 µM |
